The values that follow are results of earlier work, collected in patent US20170319567A1, “Use of CCR3-Inhibitors” (Alkahest, Inc., priority 2013, published 2017).

In this data set the test system is eosinophils. The note with it: EoE patients, anti IL-5 therapy.

B1: Mepolizumab: anti IL-5 antibody (antibody, chains of the INN, looked up, V domains shown)
VH: QVTLRESGPALVKPTQTLTLTCTVSGFSLTSYSVHWVRQPPGKGLEWLGVIWASGGTDYNSALMSRLSISKDTSRNQVVLTMTNMDPVDTATYYCARDPPSSLLRLDYWGRGTPVTVSS
VL: DIVMTQSPDSLAVSLGERATINCKSSQSLLNSGNQKNYLAWYQQKPGQPPKLLIYGASTRESGVPDRFSGSGSGTDFTLTISSLQAEDVAVYYCQNVHSFPFTFGGGTKLEIK
Take B1: the “lowering of peripheral eosinophils” value is 5 fold and the “reduction in biopsy eosinophils” value is given as 2 fold.
